Data: US20260234269
Numbering of substitutions follows the chain as printed.

B1: 15G7.2A7 (protein)
chain 1: EVQLQQSGPELVKPGASVKISCKASGYTFTDYYMNWVKQSHGKSLEWIGDINPNNGGTNYNQKFKGKATLTVDKSSSTAYMELRSLTSEDSAVYYCTSGYGFPYWGQGTLVTVSA
chain 2: DIQMNQSPSSLSASLGDTISITCRASQNINIWLSWYQQKPGNIPQLLIYKASNLHTGVPSRFSGSGSGTDFTLTISSLQPEDIATYYCLQGQSYPLTFGAGTKLVMK
B2: 20D11.2C6 (protein)
chain 1: B1 chain 1 with Y32F, M34I, N54K, T58I, Q62P, G66I, A79S, E82D, S85G
chain 2: B1 chain 2 with S20T, N30Y, Q45K, S77T, Y87F, V105E
B3: 4G2.2G6 (protein)
chain 1: QIQLVQSGPDLKKPGETVKISCKASGYTFTTYVMSWVKQAPGKDLKWMGWINTHSGVPTYADDFKGRFDFSLETSANTAFLQINNLKNEDTATYFCTRDGNDGDAMDNWGQGTSVTVSS
chain 2: not shown
B4: 846.2H3 (protein)
chain 1: QIQLVQSGPELKKPGETVKISCKASGYTFTNYGMNWVKQAPGKGLKWMGWINTYTGEPSYADDFKGRFAFSLETSASTAYLQINNLKNEDMATYFCARWGGYDGDYYAMDYWGQGTSVTVSS
chain 2: NIMMTQSPSSLAVSAGEKVTMSCKSSQSVLYSSNQKNYLAWYQQKPGQSPKLLIYWASTRESGVPDRFTGSGSGTDFTLTISSVQPEDLAVYYCHQYLSSLTFGAGTKLELK
B5: 846.1F5 (protein)
chain 1: B4 chain 1
chain 2: B4 chain 2
B6: mIMT001 (IMT001) (protein)
chain 1: QIQLVQSGPELKKPGETVKISCKASGYTFTNYGMNWVKQAPGKGLKWMGWINTNTGEPTYVEEFKGRFAFSLETSASTAYLQINNLKNEDTATYFCAPYDNFFAYWGQGTLVTVSA
chain 2: DIVITQDELSNPVTSGESVSISCRSSKSLLYKDGKTYLNWFLQRPGQSPQLLIYLMSTHASGVSDRFSGSGSGTDFTLEISRVKAEDVGVYYCQQLVDYPLTFGAGTKLELK
B7: 846T.1H2 (protein)
chain 1: QIQLVQSGPELKKPGETVKISCKASGYTFTNYGMNWVKQAPGKGLKWMGWINTNTGEPTYAEEFKGRFAFSLETSASTAYLQINNLKNEDTATYFCATGGGNWDFDYWGQGTTLTVSS
chain 2: not shown
B8: 13A12.2E5 (protein)
chain 1: QIQLVQSGPELKKPGETVKISCKTSGYKFKTYVMSWVKQAPGKALKWMGWINTYSGVPTYADDFKGRFAFSLETSASTAYLEIINLKNEDTATYFCARDGNYGDPMDYWGQGTSVTVSS
chain 2: DVVMTQTPLTLSVAIGQPASISCKSSQSLLYTNGKTYLNWLLQRPGQSPKRLIYLLSKLDSGVPDRFSASGSGTDFTLKISRVEAEDLGVYYCLQSTHFPLTFGAGTKLEMK
B9: 3B11.2G2 (protein)
chain 1: B8 chain 1
chain 2: not shown
B10: 6H6.2D6 (protein)
chain 1: QIQLVQSGPELKKPGETVKISCKASGYTFTTYGMSWVKQAPGKGLKWMAWINTYSGVPTYADDFKGRFAFSLETSASTAYLQINNLTNEDTATYFCARGPYAMDYWGQGTSVTVSS
chain 2: DIQMTQTTSSLSASLGDRVTISCSASQGISNYLNWYQQKPDGTVKLLIYYTSSLHSGVPSRFSGSGSGTDYSLTISNLEPEDIATYYCQQYSELPYTFGSGTKLEIK
B11: 20H5.A3 (protein)
chain 1: B10 chain 1 with T17S, T28A, K38Q, A49G, I51V, Y60C, T87R
chain 2: B10 chain 2 with S22N, G28D, H55L, Y87F, E93K, K103H
B12: 23H9.2E4 (protein)
chain 1: B10 chain 1 with G33A, A49G, F64L, T87K
chain 2: B10 chain 2 with S30N, T51A, E93Q, L94V
B13: 19B5.2E6 (protein)
chain 1: B10 chain 1 with G33A, A49G, F64L, T87K
chain 2: B10 chain 2 with S30N, T51A, E93Q, L94V
B14: 2D10.2B2 (protein)
chain 1: QVQLQQSGPELVKPGASVKISCKASGYTFTDYYINWVKQRPGQGLEWIGWIYPGSNDTKYNEKFKGKATLTVDTSSSTAYMQLGSLTSEDSAVYFCANYFGCSGWFFDVWGTGTTVTVSS
chain 2: DIVMTQAAFSNPVTLGTSASISCRSSKSLLHSDGITYLYWYLQRPGQSPQLLIYRMSNLASGVPDRFSGSGSGTDFTLRISRVEAEDVGVYYCAQMIEFPLTFGAGTILELK
B15: 4A11.2B5 (protein)
chain 1: QVQLQQSGPELVKPGASVKISCKASGYSFTNYYIHWVKQRPGQGLEWIGWIYPGSGNTNYNEKFKGKATLTADTSSSTTNMQLSSLTSEDSAVYYCSTAPGGFDVWGSGTTVTVSS
chain 2: B14 chain 2 with I97L, I108K
B16: 13H12.2F8 (protein)
chain 1: QIQLVQSGPELKKPGETVKISCKASGYTFTTYGMSWVKQAPGKGLKWMGWINTYSGVPTYADDFKGRFAFSLETSASTAYLQINNLKNEDTATYFCAVPYEYDGAYWGQGTLVTVSA
chain 2: not shown
B17: 14H10.2C9 (protein)
chain 1: B16 chain 1 with S35G, G44D, N84S, A97S, V98T
chain 2: not shown
B18: 19D9.2E5 (protein)
chain 1: B16 chain 1 with S35G, A76T, T91M, V98T
chain 2: not shown

Target: Human Galectin-3 protein (Acro Biosystems, GA3-H5129)
Test: ELISA, hGal3 coated, competitor hTIM3 (FIG. 24)

| Protein | GAL3-TIM3 assembly, % of level without antibody |
| --- | --- |
| B1 | to 50-75% of levels observed in the absence of a GAL3-targeted antibody |
| B2 | to 50-75% of levels observed in the absence of a GAL3-targeted antibody |
| B3 | to 50-75% of levels observed in the absence of a GAL3-targeted antibody |
| B4 | to less than 5% of levels observed in the absence of a GAL3-targeted antibody |
| B5 | to 5-20% of levels observed in the absence of a GAL3-targeted antibody |
| B6 | to 5-20% of levels observed in the absence of a GAL3-targeted antibody |
| B7 | to 5-20% of levels observed in the absence of a GAL3-targeted antibody |
| B8 | to 50-75% of levels observed in the absence of a GAL3-targeted antibody |
| B9 | to 50-75% of levels observed in the absence of a GAL3-targeted antibody |
| B10 | to 5-20% of levels observed in the absence of a GAL3-targeted antibody |
| B11 | to 5-20% of levels observed in the absence of a GAL3-targeted antibody |
| B12 | to 20-50% of levels observed in the absence of a GAL3-targted antibody |
| B13 | to 20-50% of levels observed in the absence of a GAL3-targted antibody |
| B14 | to 5-20% of levels observed in the absence of a GAL3-targeted antibody |
| B15 | to 50-75% of levels observed in the absence of a GAL3-targeted antibody |
| B16 | to 20-50% of levels observed in the absence of a GAL3-targted antibody |
| B17 | to 50-75% of levels observed in the absence of a GAL3-targeted antibody |
| B18 | to 50-75% of levels observed in the absence of a GAL3-targeted antibody |
